Data published in US20260176619A1 (published 2026).

T1: His-tagged recombinant human CD45 (human, UniProt P08575 26-577, limits assumed)
T1 construct: His-tagged
T1 sequence (looked up): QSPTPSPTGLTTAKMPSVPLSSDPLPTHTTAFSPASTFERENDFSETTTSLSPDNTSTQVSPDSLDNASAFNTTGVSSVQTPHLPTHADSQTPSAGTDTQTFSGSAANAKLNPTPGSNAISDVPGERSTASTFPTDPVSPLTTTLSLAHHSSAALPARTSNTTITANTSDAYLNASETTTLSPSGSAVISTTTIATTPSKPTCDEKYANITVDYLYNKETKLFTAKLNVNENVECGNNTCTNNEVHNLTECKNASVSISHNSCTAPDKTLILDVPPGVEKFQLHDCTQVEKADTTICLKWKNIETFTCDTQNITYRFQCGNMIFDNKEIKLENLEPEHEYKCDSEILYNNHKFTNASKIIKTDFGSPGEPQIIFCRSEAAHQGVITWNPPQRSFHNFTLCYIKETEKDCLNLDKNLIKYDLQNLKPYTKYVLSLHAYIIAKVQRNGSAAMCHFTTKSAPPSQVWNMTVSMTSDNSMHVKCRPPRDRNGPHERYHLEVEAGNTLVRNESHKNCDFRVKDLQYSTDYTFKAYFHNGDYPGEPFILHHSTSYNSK


The binders below were run against T1, His-tagged recombinant human CD45 (assay: assay not given; the affinity ELISA is described in Example 22).
Experimental: 20 nM His-tagged recombinant human receptors: CD117, CD45, CD46, CD133, and CD135, were immobilized onto nickel coated plates overnight at 4° C. in TBS buffer. Non-bound receptors were removed with three-washes of 1×TBS-T buffer. Blocking buffer was added to each well and incubated plate for 0.5 hr at room temperature with continuous shaking of 550 rpm. The plate was washed with 1X TBS-T. Serial dilutions of candidate ligands with concentrations ranged from 2 pM to 1 μM were added to each well and incubated for 1 hr at room temperature with continuous shaking of 550 rpm. After three washes of 1X TBS-T, horseradish peroxidase (HRP) enzyme liked FLAG antibody solution (1:200) was added to each well for 1 hr at room temperature with continuous shaking of 550 rpm. Chemiluminescent substrate was added and HRP enzymic activity was measured using an […]. The data was analyzed by non-linear regression to estimate binding affinity.

Row | Kd [nM] | Binder
1 | > 10 | L112-CD45 scFv (scFv, Full scFv-FLAG tagged with an extra C-terminal cys residue) scFv: EVQLVESGGDLVQPGRSLKLSCVASGFTFNNYWMTWIRQVPGKGLEWVASISSSGGSIYYPDSVKDRFTISRDNAKNTLFLQMNSLRSEDTATYYCARLYYYSGGGDAWGQGTSVTVSSGGGGSGGGGSGGGGSGGGGDIQMTQSPSFLSASVGDRVTIICKASQDINKYLDWYQQKLGEAPKLLIYNTNNLHTGIPSRFSGSGSGTDYTLTISSLQPEDVATYFCLQHISRWTFGGGTKLELKGGGGSGGGGSDYKDDDDKGGGGSC
2 | > 10 | L111-CD45 scFv (scFv, Full scFv-FLAG tagged with an extra C-terminal cys residue; also called L11I-CD45; LIII-CD45 scFv) scFv: DIQMTQSPSFLSASVGDRVTINCKASQNINKYLDWYQQKHGEAPKLLIHYTNNLHTGIPSRFSGSGSGTDYTLTISSLQPEDVATYFCLQHSSRWTFGGGTKLELKGGGGSGGGGSGGGGSGGGGEVQLVESGGDLVQPGRSLKLSCIASGFTFTNFWMTWIRQVSGKGLEWVASISSSGGSIYYPDSVKDRFTISRDNAKNTLYLQMNSLRSEDTATYYCVKLHYYSGGGDAWGQGTSVTVSSGGGGSGGGGSDYKDDDDKGGGGSC
3 | > 10 | L122-CD45 scFv (scFv, Full scFv-FLAG tagged with an extra C-terminal cys residue) scFv: EVKLLESGGGLVQPGGSLKLSCAASGFDFSRYWMSWVRQAPGKGLEWIGEINPTSSTINFTPSLKDKVFISRDNAKNTLYLQMSKVRSEDTALYYCARGNYYRYGDAMDYWGQGTSVTVSSAKGGGGSGGGGSGGGGSGGGGSDIALTQSPASLAVSLGQRATISCRASKSVSTSGYSYLHWYQQKPGQPPKLLIYLASNLESGVPARFSGSGSGTDFTLNIHPVEEEDAATYYCQHSRELPFTFGSGTKLEIKGGGGSGGGGSDYKDDDDKGGGGSC
